Laboratory results taken from US20110118131A1 (published 2011).
Substitutions are numbered along the chain they refer to. Names and notes keep the numbering of the source.

B1: XPA23 Fab, heavy chain N104W (Fab, V domains shown)
VH: EVQLLESGGGLVQPGGSLRLSCAASGFTFSKYFMFWVRQAPGKGLEWVSVISPSGGMTRYADSVKGRFTISRDNSKNTLYLQMNSLRAEDTAVYYCARVGYGGWSDYWGQGTLVTVSS
VL: DIQMTQSPSSVSASVGDRLTIICRASQDINRWLAWYQQTPGNAPKLLIHSATSLQSGVPSRFSGSGSGTDFTLTINSLQPEDFATYYCQQADSFPLTFGGGTKVEIK
B2: XPA23 Fab, heavy chain R59Q (Fab, V domains shown)
VH: B1 VH with R59Q, W104N
VL: B1 VL
B3: XPA23 Fab, heavy chain S52Y (Fab, V domains shown)
VH: B1 VH with S52Y, W104N
VL: B1 VL
B4: XPA23 Fab, heavy chain P53K (Fab, V domains shown)
VH: B1 VH with P53K, W104N
VL: B1 VL
B5: XPA23 Fab, heavy chain R59E (Fab, V domains shown)
VH: B1 VH with R59E, W104N
VL: B1 VL
B6: XPA23 Fab, heavy chain P53F (Fab, V domains shown)
VH: B1 VH with P53F, W104N
VL: B1 VL
B7: XPA23 Fab, heavy chain P53D (Fab, V domains shown)
VH: B1 VH with P53D, W104N
VL: B1 VL
B8: XPA23 Fab, heavy chain S52W (Fab, V domains shown)
VH: B1 VH with S52W, W104N
VL: B1 VL
B9: XPA23 Fab, heavy chain R59Y (Fab, V domains shown)
VH: B1 VH with R59Y, W104N
VL: B1 VL
B10: XPA23 Fab, heavy chain R59N (Fab, V domains shown)
VH: B1 VH with R59N, W104N
VL: B1 VL
B11: XPA23 Fab, heavy chain S52N (Fab, V domains shown)
VH: B1 VH with S52N, W104N
VL: B1 VL
B12: XPA23 Fab, heavy chain N104Y (Fab, V domains shown)
VH: B1 VH with W104Y
VL: B1 VL
B13: XPA23 Fab, heavy chain P53N (Fab, V domains shown)
VH: B1 VH with P53N, W104N
VL: B1 VL
B14: XPA23 Fab, heavy chain S30N (Fab, V domains shown)
VH: B1 VH with S30N, W104N
VL: B1 VL
B15: XPA23 Fab, heavy chain P53H (Fab, V domains shown)
VH: B1 VH with P53H, W104N
VL: B1 VL
B16: XPA23 Fab, heavy chain S54F (Fab, V domains shown)
VH: B1 VH with S54F, W104N
VL: B1 VL
B17: XPA23 Fab, heavy chain S30K (Fab, V domains shown)
VH: B1 VH with S30K, W104N
VL: B1 VL
B18: XPA23 Fab, heavy chain R59D (Fab, V domains shown)
VH: B1 VH with R59D, W104N
VL: B1 VL
B19: XPA23 Fab, heavy chain P53S (Fab, V domains shown)
VH: B1 VH with P53S, W104N
VL: B1 VL
B20: XPA23 Fab, heavy chain S30H (Fab, V domains shown)
VH: B1 VH with S30H, W104N
VL: B1 VL
B21: XPA23 Fab, heavy chain S54K (Fab, V domains shown)
VH: B1 VH with S54K, W104N
VL: B1 VL
B22: XPA23 Fab, heavy chain S54E (Fab, V domains shown)
VH: B1 VH with S54E, W104N
VL: B1 VL
B23: XPA23 Fab, heavy chain S30R (Fab, V domains shown)
VH: B1 VH with S30R, W104N
VL: B1 VL
B24: XPA23 Fab, heavy chain R59F (Fab, V domains shown)
VH: B1 VH with R59F, W104N
VL: B1 VL
B25: XPA23 Fab, heavy chain S52H (Fab, V domains shown)
VH: B1 VH with S52H, W104N
VL: B1 VL
B26: XPA23 Fab, heavy chain S30E (Fab, V domains shown)
VH: B1 VH with S30E, W104N
VL: B1 VL
B27: XPA23 Fab, heavy chain S52E (Fab, V domains shown)
VH: B1 VH with S52E, W104N
VL: B1 VL
B28: XPA23 Fab, heavy chain R59H (Fab, V domains shown)
VH: B1 VH with R59H, W104N
VL: B1 VL
B29: XPA23 Fab, heavy chain S52R (Fab, V domains shown)
VH: B1 VH with S52R, W104N
VL: B1 VL
B30: XPA23 Fab, heavy chain R59K (Fab, V domains shown)
VH: B1 VH with R59K, W104N
VL: B1 VL
B31: XPA23 Fab, heavy chain S30Y (Fab, V domains shown)
VH: B1 VH with S30Y, W104N
VL: B1 VL
B32: XPA23 Fab, heavy chain S54D (Fab, V domains shown)
VH: B1 VH with S54D, W104N
VL: B1 VL
B33: XPA23 Fab, heavy chain S52Q (Fab, V domains shown)
VH: B1 VH with S52Q, W104N
VL: B1 VL
B34: XPA23 Fab, heavy chain S52F (Fab, V domains shown)
VH: B1 VH with S52F, W104N
VL: B1 VL
B35: XPA23 Fab, heavy chain P53Q (Fab, V domains shown)
VH: B1 VH with P53Q, W104N
VL: B1 VL
B36: XPA23 Fab, heavy chain S30Q (Fab, V domains shown)
VH: B1 VH with S30Q, W104N
VL: B1 VL
B37: XPA23 Fab, heavy chain P53W (Fab, V domains shown)
VH: B1 VH with P53W, W104N
VL: B1 VL
B38: XPA23 Fab, heavy chain P53Y (Fab, V domains shown)
VH: B1 VH with P53Y, W104N
VL: B1 VL
B39: XPA23 Fab, heavy chain R59S (Fab, V domains shown)
VH: B1 VH with R59S, W104N
VL: B1 VL
B40: XPA23 Fab, heavy chain P53E (Fab, V domains shown)
VH: B1 VH with P53E, W104N
VL: B1 VL
B41: XPA23 Fab, heavy chain S30D (Fab, V domains shown)
VH: B1 VH with S30D, W104N
VL: B1 VL
B42: XPA23 Fab, heavy chain S30F (Fab, V domains shown)
VH: B1 VH with S30F, W104N
VL: B1 VL
B43: XPA23 Fab, heavy chain S52K (Fab, V domains shown)
VH: B1 VH with S52K, W104N
VL: B1 VL
B44: XPA23 Fab, heavy chain R59W (Fab, V domains shown)
VH: B1 VH with R59W, W104N
VL: B1 VL
B45: XPA23 Fab, heavy chain S30W (Fab, V domains shown)
VH: B1 VH with S30W, W104N
VL: B1 VL
B46: XPA23 Fab, heavy chain S52D (Fab, V domains shown)
VH: B1 VH with S52D, W104N
VL: B1 VL

target: T1, IL-1beta (UniProt P01584 117-269); assay: Biacore
T1 construct: also called IL-1β

Row | binding result | fold difference in affinity vs parental [fold] | Binder
1 | no binding |  | B1
2 |  | 0.86 | B2
3 | no binding |  | B3
4 |  | 0.04 | B4
5 | no binding |  | B5
6 |  | 0.05 | B6
7 | no binding |  | B7
8 | no binding |  | B8
9 | no binding |  | B9
10 |  | 0.86 | B10
11 | no binding |  | B11
12 | no binding |  | B12
13 |  | 0.06 | B13
14 |  | 0.15 | B14
15 | no binding |  | B15
16 |  | 0.87 | B16
17 | no binding |  | B17
18 | no binding |  | B18
19 |  | 0.03 | B19
20 | no binding |  | B20
21 |  | 1.53 | B21
22 |  | 0.03 | B22
23 |  | 0.1 | B23

Row | binding result | fold difference in affinity vs parental [fold] | Binder
24 |  | 0.92 | B24
25 | no binding |  | B25
26 | no binding |  | B26
27 | no binding |  | B27
28 | no binding |  | B28
29 | no binding |  | B29
30 |  | 0.94 | B30
31 | no binding |  | B31
32 |  | 0.12 | B32
33 | no binding |  | B33
34 | no binding |  | B34
35 |  | 0.03 | B35
36 | no binding |  | B36
37 |  | 0.05 | B37
38 |  | 0.03 | B38
39 |  | 0.13 | B39
40 |  | 0.03 | B40
41 | no binding |  | B41
42 | no binding |  | B42
43 | no binding |  | B43
44 |  | 0.09 | B44
45 |  | 0.77 | B45
46 | no binding |  | B46
